Assay results as given in US20140087995A1 (published 2014).
Numbered stars: 1 amine (or outer) side, 2 acyl side, 3 side chain; on linkers, the order of the positions; unused ones are H or OH. Bridge positions count the residues as written; N and C are the ends. * marks the point of attachment. C20 diacid = O=C(O)CCCCCCCCCCCCCCCCCCC(=O)*; γGlu = O=C(O)[C@H](CCC(=O)[*:2])N[*:1]

T1: human calcitonin receptor (human, UniProt P30988 25-474)
T1 sequence (looked up): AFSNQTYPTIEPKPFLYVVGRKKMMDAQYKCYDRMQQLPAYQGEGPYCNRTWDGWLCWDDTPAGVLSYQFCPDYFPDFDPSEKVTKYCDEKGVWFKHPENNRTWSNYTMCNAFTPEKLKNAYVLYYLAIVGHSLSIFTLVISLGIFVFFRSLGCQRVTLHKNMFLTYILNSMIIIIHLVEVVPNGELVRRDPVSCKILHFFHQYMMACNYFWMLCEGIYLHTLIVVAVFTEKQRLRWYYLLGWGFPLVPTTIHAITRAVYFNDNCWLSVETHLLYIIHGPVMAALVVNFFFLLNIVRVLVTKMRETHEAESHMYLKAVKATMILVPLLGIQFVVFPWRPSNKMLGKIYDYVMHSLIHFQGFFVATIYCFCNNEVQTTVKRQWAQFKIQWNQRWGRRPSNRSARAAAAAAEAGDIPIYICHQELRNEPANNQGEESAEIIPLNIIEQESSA

T2: human amylin receptor (amylin 3(a) receptor: human calcitonin receptor plus RAMP-3) (human, UniProt P30988 25-474; O60896 24-148)
T2 sequence (looked up) 1: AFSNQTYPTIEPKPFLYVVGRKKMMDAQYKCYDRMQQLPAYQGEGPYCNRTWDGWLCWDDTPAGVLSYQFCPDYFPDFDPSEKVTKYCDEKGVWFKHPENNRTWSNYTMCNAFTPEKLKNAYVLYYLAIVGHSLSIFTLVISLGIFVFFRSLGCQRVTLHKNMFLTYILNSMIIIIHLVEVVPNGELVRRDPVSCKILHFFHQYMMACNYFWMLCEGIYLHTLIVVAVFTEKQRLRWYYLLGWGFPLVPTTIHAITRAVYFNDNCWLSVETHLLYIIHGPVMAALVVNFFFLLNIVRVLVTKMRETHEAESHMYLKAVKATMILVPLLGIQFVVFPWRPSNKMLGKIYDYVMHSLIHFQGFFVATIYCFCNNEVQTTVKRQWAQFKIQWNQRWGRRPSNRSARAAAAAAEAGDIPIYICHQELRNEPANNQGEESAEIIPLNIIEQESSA
T2 sequence (looked up) 2: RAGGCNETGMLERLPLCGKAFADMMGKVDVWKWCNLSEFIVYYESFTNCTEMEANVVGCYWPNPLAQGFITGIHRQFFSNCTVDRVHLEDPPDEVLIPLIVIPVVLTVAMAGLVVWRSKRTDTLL


Columns and labels:
[1] = target: T1, human calcitonin receptor; assay: cell-based or functional assay
[2] = target: T2, human amylin receptor (amylin 3(a) …); assay: cell-based or functional assay
[3] = target: T2, human amylin receptor (amylin 3(a) …); assay: SPA competition binding, displacement of 125I-rat amylin, membranes of BHK amylin 3(a)/CRE-luc cells
Procedure: The binding assay was performed using scintillation proximity assay (SPA) beads (RPNQ0001) from PerkinElmer and cell membranes from the Amylin 3(a)/CRE-luc cells (as described in Assay (II)) were used. Membranes were prepared in the following way; the cells were rinsed with PBS and incubated with Versene for approximately 5 min before harvesting. The cells were flushed with PBS and the cell-suspension was centrifuged for 5 min at 1000 rpm. Cells were homogenized (ultrathurrax) in a buffer containing 20 mM Na-HEPES and 10 mM EDTA (pH 7.4) and centrifuged at 20.000 rpm for 15 min. The resulting pellet was resuspended, homogenized and centrifuged (20.000 rpm, 15 min) in a buffer containing 20 mM Na-HEPES and 0.1 mM EDTA (pH 7.4, buffer 2). The resulting pellet was resuspended in buffer 2 and protein concentration was measured (BCA protein Assay, Pierce). The homogenate was kept cold during the whole procedure. The membranes were kept at −80° C. until use. The assay was performed in a 384 well Optiplate (PerkinElmer) in a total volume of 40 ul. Membranes were mixed with SPA beads. Final concentration of membranes 35 ng/μL final and SPA beads was 0.05 mg/well. Test-compounds were dissolved in DMSO and further diluted in assay buffer (50 mM Hepes, pH 7.4, 1 mM CaCl2, 5 mM MgCl₂, 0.1% OA and 0.02% Tween20). […] The final mixture was incubated with shaking at 400 rpm for 120 min at 25° C. prior to centrifugation (1500 rpm, 10 min). Samples were analyzed on TopCounter™ (Packard). The IC₅₀ was calculated using (one site binding competition analysis) GraphPad Prism5 as a measure of receptor affinity.

Row | Binder | hCTR funct. EC50 (pM) [1] | Ratio hCT/hAmylin funct. [2] | hAmylin-R funct. EC50 (pM) [2] | IC50 [3]
1 | {C20 diacid-γGlu}-KCNTATCATQRLAEFLRHSSPNFGAIPSSTNVGSETY-NH2 (disulfide 2-7; SMILES CC[C@H](C)[C@H](NC(=O)[C@H](C)NC(=O)CNC(=O)[C@H](Cc1ccccc1)NC(=O)[C@H](CC(N)=O)NC(=O)[C@@H]1CCCN1C(=O)[C@H](CO)NC(=O)[C@H](CO)NC(=O)[C@H](Cc1c[nH]cn1)NC(=O)[C@H](CCCNC(=N)N)NC(=O)[C@H](CC(C)C)NC(=O)[C@H](Cc1ccccc1)NC(=O)[C@H](CCC(=O)O)NC(=O)[C@H](C)NC(=O)[C@H](CC(C)C)NC(=O)[C@H](CCCNC(=N)N)NC(=O)[C@H](CCC(N)=O)NC(=O)[C@@H](NC(=O)[C@H](C)NC(=O)[C@@H]1CSSC[C@H](NC(=O)[C@H](CCCCN)NC(=O)CC[C@H](NC(=O)CCCCCCCCCCCCCCCCCCC(=O)O)C(=O)O)C(=O)N[C@@H](CC(N)=O)C(=O)N[C@@H]([C@@H](C)O)C(=O)N[C@@H](C)C(=O)N[C@@H]([C@@H](C)O)C(=O)N1)[C@@H](C)O)C(=O)N1CCC[C@H]1C(=O)N[C@@H](CO)C(=O)N[C@@H](CO)C(=O)N[C@H](C(=O)N[C@@H](CC(N)=O)C(=O)N[C@H](C(=O)NCC(=O)N[C@@H](CO)C(=O)N[C@@H](CCC(=O)O)C(=O)N[C@H](C(=O)N[C@@H](Cc1ccc(O)cc1)C(N)=O)[C@@H](C)O)C(C)C)[C@@H](C)O, also called compound 22) | 1030 pM | 3.8 | 270 pM | 0.794 nM
2 | {C20 diacid-γGlu}-KCNTATCATQRLAEFLRHSSPNFGAILPSTNVGSETY-NH2 (disulfide 2-7, also called compound 33) | 528 pM | 2.2 | 243 pM | 0.915 nM
3 | {C20 diacid-γGlu}-KCNTATCATQRLAHFLRHSSPNFGAIPSSTNVGSETY-NH2 (disulfide 2-7; SMILES CC[C@H](C)[C@H](NC(=O)[C@H](C)NC(=O)CNC(=O)[C@H](Cc1ccccc1)NC(=O)[C@H](CC(N)=O)NC(=O)[C@@H]1CCCN1C(=O)[C@H](CO)NC(=O)[C@H](CO)NC(=O)[C@H](Cc1c[nH]cn1)NC(=O)[C@H](CCCNC(=N)N)NC(=O)[C@H](CC(C)C)NC(=O)[C@H](Cc1ccccc1)NC(=O)[C@H](Cc1c[nH]cn1)NC(=O)[C@H](C)NC(=O)[C@H](CC(C)C)NC(=O)[C@H](CCCNC(=N)N)NC(=O)[C@H](CCC(N)=O)NC(=O)[C@@H](NC(=O)[C@H](C)NC(=O)[C@@H]1CSSC[C@H](NC(=O)[C@H](CCCCN)NC(=O)CC[C@H](NC(=O)CCCCCCCCCCCCCCCCCCC(=O)O)C(=O)O)C(=O)N[C@@H](CC(N)=O)C(=O)N[C@@H]([C@@H](C)O)C(=O)N[C@@H](C)C(=O)N[C@@H]([C@@H](C)O)C(=O)N1)[C@@H](C)O)C(=O)N1CCC[C@H]1C(=O)N[C@@H](CO)C(=O)N[C@@H](CO)C(=O)N[C@H](C(=O)N[C@@H](CC(N)=O)C(=O)N[C@H](C(=O)NCC(=O)N[C@@H](CO)C(=O)N[C@@H](CCC(=O)O)C(=O)N[C@H](C(=O)N[C@@H](Cc1ccc(O)cc1)C(N)=O)[C@@H](C)O)C(C)C)[C@@H](C)O, also called compound 30) | 1680 pM |  | 134 pM | 0.919 nM
4 | KCNTATCATQRLANFLRHSSPNFGAIPSSTNVGSETY (C20 diacid-gGlu on the alpha amino group of the N-terminal residue (Lys1); disulfide Cys2-Cys7 and C-terminal amide as in human amylin, also called compound 23) [N^α1-[(4S)-4-carboxy-4-(19-carboxynonadecanoylamino)butanoyl]-[Arg17,Pro21,Pro27,Glu35]-h-amylin] | 3020 pM | 8.9 | 340 pM | 0.871 nM
5 | {C20 diacid-γGlu}-KCNTATCATQRLANFLRHSSPNFGAIPSSTPVGSETY-NH2 (disulfide 2-7; SMILES CC[C@H](C)[C@H](NC(=O)[C@H](C)NC(=O)CNC(=O)[C@H](Cc1ccccc1)NC(=O)[C@H](CC(N)=O)NC(=O)[C@@H]1CCCN1C(=O)[C@H](CO)NC(=O)[C@H](CO)NC(=O)[C@H](Cc1c[nH]cn1)NC(=O)[C@H](CCCNC(=N)N)NC(=O)[C@H](CC(C)C)NC(=O)[C@H](Cc1ccccc1)NC(=O)[C@H](CC(N)=O)NC(=O)[C@H](C)NC(=O)[C@H](CC(C)C)NC(=O)[C@H](CCCNC(=N)N)NC(=O)[C@H](CCC(N)=O)NC(=O)[C@@H](NC(=O)[C@H](C)NC(=O)[C@@H]1CSSC[C@H](NC(=O)[C@H](CCCCN)NC(=O)CC[C@H](NC(=O)CCCCCCCCCCCCCCCCCCC(=O)O)C(=O)O)C(=O)N[C@@H](CC(N)=O)C(=O)N[C@@H]([C@@H](C)O)C(=O)N[C@@H](C)C(=O)N[C@@H]([C@@H](C)O)C(=O)N1)[C@@H](C)O)C(=O)N1CCC[C@H]1C(=O)N[C@@H](CO)C(=O)N[C@@H](CO)C(=O)N[C@H](C(=O)N1CCC[C@H]1C(=O)N[C@H](C(=O)NCC(=O)N[C@@H](CO)C(=O)N[C@@H](CCC(=O)O)C(=O)N[C@H](C(=O)N[C@@H](Cc1ccc(O)cc1)C(N)=O)[C@@H](C)O)C(C)C)[C@@H](C)O, also called compound 28) | 2030 pM | 9.2 | 220 pM | 0.61 nM

These reach a lower IC50 [3]. Values come first.

Row | hCTR funct. EC50 (pM) [1] | Ratio hCT/hAmylin funct. [2] | hAmylin-R funct. EC50 (pM) [2] | IC50 [3] | Binder
6 | 857 pM | 8.7 | 99 pM | 0.577 nM | {C20 diacid-γGlu}-KCNTATCATQRLANFLRHSSPNFGAIPSSTNVGPETY-NH2 (disulfide 2-7; SMILES CC[C@H](C)[C@H](NC(=O)[C@H](C)NC(=O)CNC(=O)[C@H](Cc1ccccc1)NC(=O)[C@H](CC(N)=O)NC(=O)[C@@H]1CCCN1C(=O)[C@H](CO)NC(=O)[C@H](CO)NC(=O)[C@H](Cc1c[nH]cn1)NC(=O)[C@H](CCCNC(=N)N)NC(=O)[C@H](CC(C)C)NC(=O)[C@H](Cc1ccccc1)NC(=O)[C@H](CC(N)=O)NC(=O)[C@H](C)NC(=O)[C@H](CC(C)C)NC(=O)[C@H](CCCNC(=N)N)NC(=O)[C@H](CCC(N)=O)NC(=O)[C@@H](NC(=O)[C@H](C)NC(=O)[C@@H]1CSSC[C@H](NC(=O)[C@H](CCCCN)NC(=O)CC[C@H](NC(=O)CCCCCCCCCCCCCCCCCCC(=O)O)C(=O)O)C(=O)N[C@@H](CC(N)=O)C(=O)N[C@@H]([C@@H](C)O)C(=O)N[C@@H](C)C(=O)N[C@@H]([C@@H](C)O)C(=O)N1)[C@@H](C)O)C(=O)N1CCC[C@H]1C(=O)N[C@@H](CO)C(=O)N[C@@H](CO)C(=O)N[C@H](C(=O)N[C@@H](CC(N)=O)C(=O)N[C@H](C(=O)NCC(=O)N1CCC[C@H]1C(=O)N[C@@H](CCC(=O)O)C(=O)N[C@H](C(=O)N[C@@H](Cc1ccc(O)cc1)C(N)=O)[C@@H](C)O)C(C)C)[C@@H](C)O, also called compound 29)
7 | 742 pM | 4.8 | 154 pM | 0.554 nM | {C20 diacid-γGlu}-KCNTATCATQRLAEFLRHSSPNFGAIPSSTNVGSHTY-NH2 (disulfide 2-7; SMILES CC[C@H](C)[C@H](NC(=O)[C@H](C)NC(=O)CNC(=O)[C@H](Cc1ccccc1)NC(=O)[C@H](CC(N)=O)NC(=O)[C@@H]1CCCN1C(=O)[C@H](CO)NC(=O)[C@H](CO)NC(=O)[C@H](Cc1c[nH]cn1)NC(=O)[C@H](CCCNC(=N)N)NC(=O)[C@H](CC(C)C)NC(=O)[C@H](Cc1ccccc1)NC(=O)[C@H](CCC(=O)O)NC(=O)[C@H](C)NC(=O)[C@H](CC(C)C)NC(=O)[C@H](CCCNC(=N)N)NC(=O)[C@H](CCC(N)=O)NC(=O)[C@@H](NC(=O)[C@H](C)NC(=O)[C@@H]1CSSC[C@H](NC(=O)[C@H](CCCCN)NC(=O)CC[C@H](NC(=O)CCCCCCCCCCCCCCCCCCC(=O)O)C(=O)O)C(=O)N[C@@H](CC(N)=O)C(=O)N[C@@H]([C@@H](C)O)C(=O)N[C@@H](C)C(=O)N[C@@H]([C@@H](C)O)C(=O)N1)[C@@H](C)O)C(=O)N1CCC[C@H]1C(=O)N[C@@H](CO)C(=O)N[C@@H](CO)C(=O)N[C@H](C(=O)N[C@@H](CC(N)=O)C(=O)N[C@H](C(=O)NCC(=O)N[C@@H](CO)C(=O)N[C@@H](Cc1c[nH]cn1)C(=O)N[C@H](C(=O)N[C@@H](Cc1ccc(O)cc1)C(N)=O)[C@@H](C)O)C(C)C)[C@@H](C)O, also called compound 18)
